Holding throughout (assay): pull-down
Settings in all cases: both partners purified

Assay [1] deals with T1, SARS-CoV-2 Nucleocapsid (N) protein, full-length (SARS-CoV-2, reference Wuhan-Hu-1 …, UniProt P0DTC9).
T1 construct: also called full-length N; FL

The target of assay [2] is T2, SARS-CoV-2 N protein RNA-binding domain (residues 49-174) (SARS-CoV-2, UniProt P0DTC9).
T2 construct: also called N^49-174; N^RBD

Assay [3] concerns the target T3, SARS-CoV-2 N protein C-terminal intrinsically disordered region (residues 365-419) (SARS-CoV-2, reference Wuhan-Hu-1 …, UniProt P0DTC9).
T3 construct: also called C-IDR

B1: single-domain antibody sdAb-E2 (VHH)
VHH: EVQLQASGGGLVQAGGSLRLSCAASGRTDSTQHMAWFRQAPGKEREFVTAIQWRGGGTSYTDSVKGRFTISRDNAKNTVYLEMNSLKPEDTAVYYCATNTRWTYFSPTVPDRYDYWGQGTQVTVSS
notes: not shown: His6, C-terminal, kept
Turning to B1, the binding result in assay [1] is reported as “binds”.

B2: single-domain antibody sdAb-B6 (VHH)
VHH: EVQLQASGGGLVQAGDSLRLSCVAVSGRTISTFAMGWFRQAPGKEREFVATINWSGSSARYADPVEGRFTISRDDAKNTVYLEMSSLKPGDSAVYYCASGRYLGGITSYSQGDFAPWGQGTQVTVSS
notes: as for B1
Consider B2, for which the binding result in assay [1] is on record as “binds”.

B3: single-domain antibody sdAb-C2 (VHH)
VHH: EVQLQASGGGLVRPGGSLRLSCAASGFTFSSYAMMWVRQAPGKGLEWVSAINGGGGSTSYADSVKGRFTISRDNAKNTLYLQMNSLKPEDTAVYYCAKYQAAVHQEKEDYWGQGTQVTVSS
notes: as for B1
Regarding B3, the binding result in assay [1] and in assay [2] was “binds” each time.

B4: single-domain antibody sdAb-N3 (VHH)
VHH: KVKLQQSGGGLVQTGGSLRLSCAPSGRTFSVNAMGWYRQAPGKQREPVALISTGGSTNYADSVKGRFTISRDNVKNTVYLQMNTLKPEDTAVYYCYTERWKPRGIERDWGQGTQVTVSS
notes: as for B1
For B4, the binding result in assay [1] and in assay [3] was “binds” each time.

Source of the values: publication PMC8351461 (Frontiers in Immunology, 2021).
